Measured values from patent US20220135661A1 (University of Pennsylvania, published 2022).

B1: Syn9068.13.01 (antibody, IgG1, V domains shown)
VH: EVHLVESGGGLVQPKGSLKLSCAASGFTFNTYAMHWVRQAPGKGLEWVARIRNKSNNYATYYADSVKDRFTISRDDSQSMLFLQMDNLKTEDTAIYYCVRGGLSPFDYWGQGTTLTVSS
VL: QIVLTQSPAIMSASPGEKVTMTCSASSSVTYMHWYQQKSGTSPKRWIYDTSKLASGVPARFSGSGSGTSYSLTISSMEAEDAATYYCQQWSSNPPTFGGGTKLEIR
notes: also called mAb Syn9068.13.01; MHC993
B2: Syn9048.04.07 (antibody, IgG1, V domains shown)
VH: QVQLQQSGPELVKPGASVRISCKASGYTFTTFYLHWVKQRPGQGLEWIGWIYPVNVKIKYSERFKGKATLTADKSSSTAYMQLGSLTSEDSAVYFCVRGGRGLDYWGQGTTLTVSS
VL: NIMMTQSPSSLAVSAGEKVTMSCKSSQSVLYSSNQKNYLAWYQQKPGQSPKMLIYWASFRESGVPDRFTGSGSGTDFTLTISSVQAEDLAVYYCHQYLSLFTFGSGTKLEIK
notes: also called mAb Syn9048.04.07; MHC992
B3: Syn9063.26.22 (antibody, IgG2b, V domains shown)
VH: QVQLKQSGPGLVQPSQSQSLTCTVSGFSLTSYGVHWVRQPLGKGLEWLGVIWSGGSTDYNAAFISRLSIRKDNSKSQVFFKMNSLQADDTAIYYCARTFTTSTSAWFAYWGQGTLVTVSA
VL: QIVLTQSPAIMSASPGEKVTMTCSASSSVSYMYWYQQKPGSSPRLLIYDTSKLASGVPVRFSGSGSGTSYSLTISRMEAEDAATYYCQQWRSYPPTFGAGTKLELK
notes: also called mAb Syn9063.26.22; MHC978

How the values were obtained:
[1] = target: T1, recombinant human preformed α-Synuclein fibrils (human, UniProt P37840 1-140); test: cell-based or functional assay
[2] = target: recombinant mouse preformed α-Synuclein fibrils (mouse, UniProt O55042 1-140); test: cell-based or functional assay
[3] = target: human α-Synuclein (form not stated) (human, UniProt P37840 1-140); test: direct ELISA; human αSyn against mouse αSyn as reference
[4] = target: T1, recombinant human preformed α-Synuclein …; test: sandwich ELISA, mAb coated, MJF-R1 reporter; human PFFs against human monomer as reference
Protocol: FIG. 1A is a pair of graphs depicting the affinity of mAb Syn9063.26.22 for human monomeric (top) and fibrillar (PFF) (bottom) α-Syn measured by sandwich ELISA. 384-well plates were coated with 0.3 μg of the indicated mAb. After blocking, these were incubated with various concentrations of α-Syn monomer or PFFs (expressed as monomer equivalent concentration) as indicated. MJF-R1 was used as a reporter antibody to determine affinity for each form of α-Syn. FIG. 1B is a pair of graphs depicting the affinity of mAb Syn9048.04.07 for human monomeric (top) and fibrillar (PFF) (bottom) α-Syn measured by sandwich ELISA. 384-well plates were coated with 0.3 μg of the indicated mAb. After blocking, these were incubated with various concentrations of α-Syn monomer or PFFs (expressed as monomer equivalent concentration) as indicated. MJF-R1 was used as a reporter antibody to determine affinity for each form of α-Syn. FIG. 1C is a pair of graphs depicting the affinity of mAb Syn9068.13.01 for human monomeric (top) and fibrillar (PFF) (bottom) α-Syn measured by sandwich ELISA. […] After blocking, these were incubated with various concentrations of α-Syn monomer or PFFs (expressed as monomer equivalent concentration) as indicated. […]
The affinity of three mAbs from the 9000 series for human monomeric and fibrillar (PFF) α-Syn was measured by sandwich ELISA. […]

Binder	Inhibition in neuron assay (Hu PFFs) [1] [%]	Inhibition in neuron assay (Ms PFFs) [2] [%]	Recognition of Hu vs. Ms αSyn (fold) [3] [fold]	Selective binding to PFFs (fold over monomer) [4] [fold]
B1	85	~90	1	–
B2	> 95	> 95	1.4	30
B3	80	50	1.1	100
